The chains are these.
B1: IgG1-F1080 (antibody)
heavy: QVQLQESGPGLVKPSETLSLTCAVSGHSISHDHAWSWVRQPPGEGLEWIGFISYSGITNYNPSLQGRVTISRDNSKNTLYLQMNSLRAEDTAVYYCARSLARTTAMDYWGEGTLVTVSSASTKGPSVFPLAPSSKSTSGGTAALGCLVKDYFPEPVTVSWNSGALTSGVHTFPAVLQSSGLYSLSSVVTVPSSSLGTQTYICNVNHKPSNTKVDKKVEPKSCDKTHTCPPCPAPELLGGPSVFLFPPKPKDTLYISRTPEVTCVVVDVSHEDPEVKFNWYVDGVEVHNAKTKPREEQYNSTYRVVSVLTVLHQDWLNGKEYKCKVSNKALPAPIEKTISKAKGQPREPQVYTLPPSRDELTKNQVSLTCLVKGFYPSDIAVEWESNGQPENNYKTTPPVLDSDGSFFLYSKLTVDKSRWQQGNVFNCSVMHEALHYHYTQKSLSLSP
light: not shown
notes: EU numbering; copies: 2 + 2
B2: IgG1-F1095 (antibody)
heavy: QVQLQESGPGLVKPSETLSLTCAVSGHSISHDHAWSWVRQPPGEGLEWIGFISYSGITNYNPSLQGRVTISRDNSKNTLYLQMNSLRAEDTAVYYCARSLARTTAMDYWGEGTLVTVSSASTKGPSVFPLAPSSKSTSGGTAALGCLVKDYFPEPVTVSWNSGALTSGVHTFPAVLQSSGLYSLSSVVTVPSSSLGTQTYICNVNHKPSNTKVDKKVEPKSCDKTHTCPPCPAPELLGGPSVFLFPPKPKDTLYISRTPEVTCVVVDVSHEDPEVKFNWYVDGVEVHNAKTKPREEQYNSTYRVVSVLTVLHQDWLNGKEYKCKVSNKALPAPIEKTISKAKGQPREPQVYTLPPSRDELTKNQVSLTCLVKGFYPSDIAVEWENNSQPENNYKTTPPVLDSDGSFFLYSKLTVDKSRWQQGNVFSCSVMHEALHYHYTQKSLSLSP
light: not shown
notes: EU numbering; copies: 2 + 2
B3: IgG1-F1094 (antibody)
heavy: QVQLQESGPGLVKPSETLSLTCAVSGHSISHDHAWSWVRQPPGEGLEWIGFISYSGITNYNPSLQGRVTISRDNSKNTLYLQMNSLRAEDTAVYYCARSLARTTAMDYWGEGTLVTVSSASTKGPSVFPLAPSSKSTSGGTAALGCLVKDYFPEPVTVSWNSGALTSGVHTFPAVLQSSGLYSLSSVVTVPSSSLGTQTYICNVNHKPSNTKVDKKVEPKSCDKTHTCPPCPAPELLGGPSVFLFPPKPKDTLYISRTPEVTCVVVDVSHEDPEVKFNWYVDGVEVHNAKTKPREEQYNSTYRVVSVLTVLHQDWLNGKEYKCKVSNKALPAPIEKTISKAKGQPREPQVYTLPPSRDELTKNQVSLTCLVKGFYPSDIAVEWESNGQPENNYKTTPPVLDSDGSFFLYSKLTVDKSRWQQGNVFSCSVMHEALHYHYTQKSLNLSP
light: not shown
notes: EU numbering; copies: 2 + 2
B4: IgG1-F1098 (antibody)
heavy: QVQLQESGPGLVKPSETLSLTCAVSGHSISHDHAWSWVRQPPGEGLEWIGFISYSGITNYNPSLQGRVTISRDNSKNTLYLQMNSLRAEDTAVYYCARSLARTTAMDYWGEGTLVTVSSASTKGPSVFPLAPSSKSTSGGTAALGCLVKDYFPEPVTVSWNSGALTSGVHTFPAVLQSSGLYSLSSVVTVPSSSLGTQTYICNVNHKPSNTKVDKKVEPKSCDKTHTCPPCPAPELLGGPDVFLFPPKPKDTLYISRTPEVTCVVVDVSHEDPEVKFNWYVDGVEVHNAKTKPREEQYNSTYRVVSVLTVLHQDWLNGKEYKCKVSNKALPAPIEKTISKAKGQPREPQVYTLPPSRDELTKNQVSLTCLVKGFYPSDIAVEWESNGQPENNYKTTPPVLDSDGSFFLYSKLTVDKSRWQQGNVFSCSVMHEALHYHYTQKSLSLSP
light: not shown
notes: EU numbering; copies: 2 + 2
B5: IgG1-F1096 (antibody)
heavy: QVQLQESGPGLVKPSETLSLTCAVSGHSISHDHAWSWVRQPPGEGLEWIGFISYSGITNYNPSLQGRVTISRDNSKNTLYLQMNSLRAEDTAVYYCARSLARTTAMDYWGEGTLVTVSSASTKGPSVFPLAPSSKSTSGGTAALGCLVKDYFPEPVTVSWNSGALTSGVHTFPAVLQSSGLYSLSSVVTVPSSSLGTQTYICNVNHKPSNTKVDKKVEPKSCDKTHTCPPCPAPELLGGPSVFLFPPKPKDTLYISRTPEVTCVVVDVSHEDPEVKFNWYVDGVEVHNAKTKPREEQYNSTYRVVSVLTVLHQDWLNGKEYKCKVSNKALPAPIEKTISKAKGQPREPQVYTLPPSRDELTKNQVSLTCLVKGFYPSDIAVEWESNGTPENNYKTTPPVLDSDGSFFLYSKLTVDKSRWQQGNVFSCSVMHEALHYHYTQKSLSLSP
light: not shown
notes: EU numbering; copies: 2 + 2
B6: IgG1-F1097 (antibody)
heavy: QVQLQESGPGLVKPSETLSLTCAVSGHSISHDHAWSWVRQPPGEGLEWIGFISYSGITNYNPSLQGRVTISRDNSKNTLYLQMNSLRAEDTAVYYCARSLARTTAMDYWGEGTLVTVSSASTKGPSVFPLAPSSKSTSGGTAALGCLVKDYFPEPVTVSWNSGALTSGVHTFPAVLQSSGLYSLSSVVTVPSSSLGTQTYICNVNHKPSNTKVDKKVEPKSCDKTHTCPPCPAPELLGGPSVFLFPPKPKDTLYISRTPEVTCVVVDVSHEDPEVKFNWYVDGVEVHNAKTKPREEQYNSTYRVVSVLTVLHQDWLNGKEYKCKVSNKALPAPIEKTISKAKGQPREPQVYTLPPSRDELTKNQVSLTCLVKGFYPSDIAVEWESNNQSENNYKTTPPVLDSDGSFFLYSKLTVDKSRWQQGNVFSCSVMHEALHYHYTQKSLSLSP
light: not shown
notes: EU numbering; copies: 2 + 2
B7: IgG1-F1101 (antibody)
heavy: QVQLQESGPGLVKPSETLSLTCAVSGHSISHDHAWSWVRQPPGEGLEWIGFISYSGITNYNPSLQGRVTISRDNSKNTLYLQMNSLRAEDTAVYYCARSLARTTAMDYWGEGTLVTVSSASTKGPSVFPLAPSSKSTSGGTAALGCLVKDYFPEPVTVSWNSGALTSGVHTFPAVLQSSGLYSLSSVVTVPSSSLGTQTYICNVNHKPSNTKVDKKVEPKSCDKTHTCPPCPAPELLGGPDVFLFPPKPKDTLYISRTPEVTCVVVDVSHEDPEVKFNWYVDGVEVHNAKTKPREEQYNSTYRVVSVLQVLHADWLNGKEYKCKVSNKALPAPIEKTISKAKGQPREPQVYTLPPSRDELTKNQVSLTCLVKGFYPSDIAVEWESNGQPENNYKTTPPVLDSDGSFFLYSKLTVDKSRWQQGNVFSCSVMHEALHYHYTQKSLSLSP
light: not shown
notes: EU numbering; copies: 2 + 2
B8: IgG1-F1082 (antibody)
heavy: QVQLQESGPGLVKPSETLSLTCAVSGHSISHDHAWSWVRQPPGEGLEWIGFISYSGITNYNPSLQGRVTISRDNSKNTLYLQMNSLRAEDTAVYYCARSLARTTAMDYWGEGTLVTVSSASTKGPSVFPLAPSSKSTSGGTAALGCLVKDYFPEPVTVSWNSGALTSGVHTFPAVLQSSGLYSLSSVVTVPSSSLGTQTYICNVNHKPSNTKVDKKVEPKSCDKTHTCPPCPAPELLGGPSVFLFPPKPKDTLYISRTPEVTCVVVDVSHEDPEVKFNWYVDGVEVHNAKTKPREEQYNSTYRVVSVLTVLHQDWLNGKEYKCKVSNKALPAPIEKTISKAKGQPREPQVYTLPPSRDELTKNQVSLTCLVKGFYPSDIAVEWESNGQPENNYKTTPPVLDSDGSFFLYSKLTVDKSRWQQGNVFSCSVMHEALHYHYTNKSLSLSP
light: not shown
notes: EU numbering; copies: 2 + 2
B9: IgG1-F1102 (antibody)
heavy: QVQLQESGPGLVKPSETLSLTCAVSGHSISHDHAWSWVRQPPGEGLEWIGFISYSGITNYNPSLQGRVTISRDNSKNTLYLQMNSLRAEDTAVYYCARSLARTTAMDYWGEGTLVTVSSASTKGPSVFPLAPSSKSTSGGTAALGCLVKDYFPEPVTVSWNSGALTSGVHTFPAVLQSSGLYSLSSVVTVPSSSLGTQTYICNVNHKPSNTKVDKKVEPKSCDKTHTCPPCPAPELLGGPSVFLFPPKPKDTLYISRTPEVTCVVVDVSHEDPEVKFNWYVDGVEVHNAKTKPREEQYNSTYRVVSVLQVLHADWLNGKEYKCKVSNDAYPAPIEKTISKAKGQPREPQVYTLPPSRDELTKNQVSLTCLVKGFYPSDIAVEWESNGQPENNYKTTPPVLDSDGSFFLYSKLTVDKSRWQQGNVFSCSVMHEALHYHYTQKSLSLSP
light: not shown
notes: EU numbering; copies: 2 + 2
B10: IgG1-F1083 (antibody)
heavy: QVQLQESGPGLVKPSETLSLTCAVSGHSISHDHAWSWVRQPPGEGLEWIGFISYSGITNYNPSLQGRVTISRDNSKNTLYLQMNSLRAEDTAVYYCARSLARTTAMDYWGEGTLVTVSSASTKGPSVFPLAPSSKSTSGGTAALGCLVKDYFPEPVTVSWNSGALTSGVHTFPAVLQSSGLYSLSSVVTVPSSSLGTQTYICNVNHKPSNTKVDKKVEPKSCDKTHTCPPCPAPELLGGPSVFLFPPKPKDTLYISRTPEVTCVVVDVSHEDPEVKFNWYVDGVEVHNAKTKPREEQYNSTYRVVSVLTVLHQDWLNGKEYKCKVSNKALPAPIEKTISKAKGQPREPQVYTLPPSRDELTKNQVSLTCLVKGFYPSDIAVEWESNGQPENNYKTTPPVLDSDGSFFLYSKLTVDKSRWQQGNVFSCSVMHEALHYHYTQKNLSLSP
light: not shown
notes: EU numbering; copies: 2 + 2
B11: IgG1-F1100 (antibody)
heavy: QVQLQESGPGLVKPSETLSLTCAVSGHSISHDHAWSWVRQPPGEGLEWIGFISYSGITNYNPSLQGRVTISRDNSKNTLYLQMNSLRAEDTAVYYCARSLARTTAMDYWGEGTLVTVSSASTKGPSVFPLAPSSKSTSGGTAALGCLVKDYFPEPVTVSWNSGALTSGVHTFPAVLQSSGLYSLSSVVTVPSSSLGTQTYICNVNHKPSNTKVDKKVEPKSCDKTHTCPPCPAPELLGGPDVFLFPPKPKDTLYISRTPEVTCVVVDVSHEDPEVKFNWYVDGVEVHNAKTKPREEQYNSTYRVVSVLTVLHQDWLNGKEYKCKVSNDAYPAPIEKTISKAKGQPREPQVYTLPPSRDELTKNQVSLTCLVKGFYPSDIAVEWESNGQPENNYKTTPPVLDSDGSFFLYSKLTVDKSRWQQGNVFSCSVMHEALHYHYTQKSLSLSP
light: not shown
notes: EU numbering; copies: 2 + 2
B12: IgG1-F1081 (antibody)
heavy: QVQLQESGPGLVKPSETLSLTCAVSGHSISHDHAWSWVRQPPGEGLEWIGFISYSGITNYNPSLQGRVTISRDNSKNTLYLQMNSLRAEDTAVYYCARSLARTTAMDYWGEGTLVTVSSASTKGPSVFPLAPSSKSTSGGTAALGCLVKDYFPEPVTVSWNSGALTSGVHTFPAVLQSSGLYSLSSVVTVPSSSLGTQTYICNVNHKPSNTKVDKKVEPKSCDKTHTCPPCPAPELLGGPSVFLFPPKPKDTLYISRTPEVTCVVVDVSHEDPEVKFNWYVDGVEVHNAKTKPREEQYNSTYRVVSVLTVLHQDWLNGKEYKCKVSNKALPAPIEKTISKAKGQPREPQVYTLPPSRDELTKNQVSLTCLVKGFYPSDIAVEWESNGQPENNYKTTPPVLDSDGSFFLYSKLTVDKSRWQQGNVFSCSVMHEALHYHNTTKSLSLSP
light: not shown
notes: EU numbering; copies: 2 + 2

Data on twelve molecules can be found in patent US20200199241A1 (Chugai, published 2020).

The target of this test is T1, soluble human FcRn complexed with β2-microglobulin (human, UniProt P61769 21-119, limits assumed).
T1 construct: also called hFcRn
T1 sequence (chain, as listed by the source limits assumed, chain 1 of 2): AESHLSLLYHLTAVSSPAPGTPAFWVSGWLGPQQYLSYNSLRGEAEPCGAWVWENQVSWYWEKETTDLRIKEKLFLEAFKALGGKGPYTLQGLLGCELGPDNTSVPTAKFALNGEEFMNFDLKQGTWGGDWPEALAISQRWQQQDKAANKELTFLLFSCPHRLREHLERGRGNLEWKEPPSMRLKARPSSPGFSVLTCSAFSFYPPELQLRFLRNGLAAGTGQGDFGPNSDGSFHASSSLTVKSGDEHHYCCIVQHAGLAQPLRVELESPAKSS
T1 sequence (P61769 21-119 limits assumed, chain 2 of 2): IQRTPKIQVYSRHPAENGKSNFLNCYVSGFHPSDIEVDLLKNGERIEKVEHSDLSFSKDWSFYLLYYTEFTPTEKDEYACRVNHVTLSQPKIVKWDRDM
In words: Biacore SPR, pH 7.0.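 Note: test antibodies captured on a Protein L chip with human FcRn flowed over as analyte, KD obtained as the ratio of dissociation to association rate constants.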
In turn, B1 showed a Kd of 319 nM. For the molecule B2, binding was put at a Kd of 286 nM. In turn, B3 came in with a Kd of 260 nM. In turn, B4 came in with a Kd of 258 nM.

B5 returned a Kd of 272 nM.

As for B6, the equilibrium dissociation constant (Kd) is 282 nM. As for B7, the Kd came out at 65.9 nM. On to B8, for which the dissociation constant Kd is 276 nM.

For B9, binding was characterised by a dissociation constant (Kd) of 64.6 nM. Consider B10, for which the dissociation constant (Kd) came out at 345 nM. This Kd lies about 5.3-fold higher than the previous one.

In turn, B11 had a Kd of 241 nM. B12 showed a dissociation constant (Kd) of 620 nM.
